{
  "source": "paper PMC4013577",
  "key": {"[1]": {"biological_target": "anti-hIgG (IgG2a)", "assay": "SPR; Autolab ESPRIT, room temperature, PBS pH 7.4; anti-hIgG adsorbed on the Cal-4 derivative 1 (ethylester) SAM on gold, blocked with 0.1 mg/mL BSA, then 100 μL of 10 μg/mL protein G"}, "[2]": {"biological_target": "anti-hIgG (IgG2a)", "assay": "SPR; Autolab ESPRIT, room temperature, PBS pH 7.4; anti-hIgG adsorbed on the Cal-4 derivative 2 (carboxylic acid) SAM on gold, blocked with 0.1 mg/mL BSA, then 100 μL of 10 μg/mL protein G"}},
  "data": [
    {"substance": "Protein G (from UniProt P06654 34-417) (natural protein)", "values": [
      {"measurement": "SPR angle shift", "setting": "[1]", "result": 32.6, "unit": "m°"},
      {"measurement": "SPR angle shift", "setting": "[2]", "result": 94, "unit": "m°"}
    ]}
  ]
}
